Holding throughout (experiment): BLI
For orientation: In BLI a coated tip is dipped into the sample, and binding shifts an interference pattern.

In assay [1] the target is T1, MPXV M2 (monkeypox virus M2 protein), His-tagged, wild type (monkeypox virus (Clade I), UniProt Q8V554 18-220).
Assay [2] concerns the target T2, CPXV M2 (cowpox virus M2), recombinant, His-tagged (cowpox virus, UniProt Q8QN22 18-220).
T2 chain: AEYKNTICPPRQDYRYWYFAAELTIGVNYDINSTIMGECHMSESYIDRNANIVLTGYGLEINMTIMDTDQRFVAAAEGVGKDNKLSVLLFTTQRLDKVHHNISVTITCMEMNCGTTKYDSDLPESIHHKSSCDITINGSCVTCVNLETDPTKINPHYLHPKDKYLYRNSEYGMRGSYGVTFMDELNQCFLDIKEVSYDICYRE

The target in assay [3] is T1, MPXV M2 (monkeypox virus M2 protein), …. The source holds these as a separate data set.
For assay [4], the target named is T2, CPXV M2 (cowpox virus M2), recombinant, ….
Assay [5] addresses MPXV Bio-M2 (site-specifically biotinylated MPXV Avi-M2) (monkeypox virus (Clade I), UniProt Q8V554 18-220).

B1: mouse B7.1 ectodomain fused to human Fc (Fc fusion)
chain: VDEQLSKSVKDKVLLPCRYNSPHEDESEDRIYWQKHDKVVLSVIAGKLKVWPEYKNRTLYDNTTYSLIILGLVLSDRGTYSCVVQKKERGTYEVKHLALVKLSIKADFSTPNITESGNPSADTKRITCFASGGFPKPRFSWLENGRELPGINTTISQDPESELYTISSQLDFNTTRNHTIKCLIKYGDAHVSEDFTWEKPPEDPPDSK
The Kd is a measure of binding affinity in units of concentration. The koff is a measure of how fast the partners let go of each other. In the case of B1, the Kd turned out to be 0.243 nM in assay [1] and 1.48 nM in assay [2]. Further, the off-rate constant (koff) in assay [3] was determined as 2.92e-05 s⁻¹; in assay [4] it was 0.000109 s⁻¹.

B2: human B7.1 ectodomain fused to human Fc (Fc fusion)
chain: VIHVTKEVKEVATLSCGHNVSVEELAQTRIYWQKEKKMVLTMMSGDMNIWPEYKNRTIFDITNNLSIVILALRPSDEGTYECVVLKYEKDAFKREHLAEVTLSVKADFPTPSISDFEIPTSNIRRIICSTSGGFPEPHLSWLENGEELNAINTTVSQDPETELYAVSSKLDFNMTTNHSFMCLIKYGHLRVNQTFNWNTT
Take B2: the koff in assay [3] came to 2.91e-05 s⁻¹.

B3: human B7.1 ectodomain, His-tagged (domain or fragment)
chain: B2 chain
Turning to B3, the off-rate constant (koff) in assay [5] is 0.00676 s⁻¹.

B4: human B7.2 ectodomain, His-tagged (domain or fragment)
chain: LKIQAYFNETADLPCQFANSQNQSLSELVVFWQDQENLVLNEVYLGKEKFDSVHSKYMGRTSFDSDSWTLRLHNLQIKDKGLYQCIIHHKKPTGMIRIHQMNSELSVLANFSQPEIVPISNITENVYINLTCSSIHGYPEPKKMSVLLRTKNSTIEYDGVMQKSQDNVTELYDVSISLSVSFPDVTSNMTIFCILETDKTRLLSSPFSIELED
In the case of B4, the koff in assay [5] was determined as 0.0334 s⁻¹.

B5: human B7.2 ectodomain fused to human Fc (Fc fusion)
chain: B4 chain
In assay [3], B5 came in with an off-rate (koff) of 9.75e-06 s⁻¹.

B6: mouse B7.2 ectodomain fused to human Fc (Fc fusion)
chain: VSVETQAYFNGTAYLPCPFTKAQNISLSELVVFWQDQQKLVLYEHYLGTEKLDSVNAKYLGRTSFDRNNWTLRLHNVQIKDMGSYDCFIQKKPPTGSIILQQTLTELSVIANFSEPEIKLAQNVTGNSGINLTCTSKQGHPKPKKMYFLITNSTNEYGDNMQISQDNVTELFSISNSLSLSFPDGVWHMTVVCVLETESMKISSKPLNFTQEFPSPQTYWKE
Regarding B6, the dissociation constant (Kd) in assay [1] amounted to 13600 nM; in assay [2] it was 8 nM. Further, the koff in assay [3] is 0.689 s⁻¹; in assay [4], 0.000363 s⁻¹.

Source of the values: PMC10457294 (2023).
